Data set [1] concerns the target T1, HIV-1 reverse transcriptase (HIV-RT) (HIV-1, UniProt P04585;P04585 P04585:588-1147,P04585:588-1027). In words: filter. As for the experimental part: (§1) Affinity assays with labeled RNA and HIV-RT. Model RNAs for refinement of the 5' and 3' boundaries and for determination of the effect of substitutions were labeled during transcription with T7 RNA polymerase as described in Tuerk et al. (1990) except that a-^32P-ATP was used, in reactions of 0.5 mM C,G, and UTP with 0.05 mM ATP. Synthetic oligonucleotides and phosphatased transcripts (as in Tuerk et al., 1990) were kinased as described in Gauss et al. (1987). All RNA-protein binding reactions were done in a "binding buffer" of 200 mM KOAc, 50 mM Tris-HCl pH 7.7, 10 mM dithiothreitol with exceptions noted for chemical protection experiments below. RNA and protein dilutions were mixed and stored on ice for 30 minutes then transferred to 37° C. for 5 minutes. In binding assays the reaction volume was 60 μl of which 50 μl was assayed. Each reaction was suctioned through a pre-wet (with binding buffer) nitrocellulose filter and rinsed with 3 mls of binding buffer after which it was dried and counted for assays or subjected to elution and assayed for chemical modification. In comparisons of binding affinity, results were plotted and the protein concentration at which half-maximal binding occurred (the approximate Kd in conditions of protein excess) was determined graphically.

Data set [2] deals with T1, HIV-1 reverse transcriptase (HIV-RT). Briefly: filter; little difference in affinity. As for the experimental part: as §1
Data set [3] shares this target. In words: filter; no effect on binding. As for the experimental part:
as §1

Data set [4] has the same target. Briefly: filter; binds with high affinity. How it is done:
as §1

The target is the same in data set [5]. In words: filter; specific binding abolished. How it is done:
as §1

Data set [6] has the same target. In words: filter; binding reduced to that of non-specific sequences. How it is done:
as §1

Data set [7] shares this target. Briefly: filter; no 3' helix. How it is done: as §1
Data set [8] has the same target. In words: filter; affinity unchanged versus transcripts with two extra 5' Gs. As for the experimental part:
as §1

The target is the same in data set [9]. Briefly: filter; no difference in affinity. How it is done:
as §1

Data set [10] has the same target. Briefly: filter; section II states 5-fold decrease on removal of both Us. As for the experimental part: as §1

B1: ligand B C3-G14 to G-C (ssRNA)
RNA: GGUCGGAAGUGCAACCGGAAAAUGCACU
For B1, the binding signal in data set [1] was ~10 fold lower affinity.

B2: ligand B C2-G15 to G-C (ssRNA)
RNA: GGUGCGAAGUGCAACGCGAAAAUGCACU
With B2, in [1], the binding result is “no binding”.

B3: ligand B U1C (ssRNA)
RNA: GGCCCGAAGUGCAACGGGAAAAUGCACU
As to B3, the binding signal in data set [1] is ~20 fold lower affinity.

B4: ligand B U1A (ssRNA)
RNA: GGACCGAAGUGCAACGGGAAAAUGCACU
As for B4, in data set [2], the binding result was “binds”.

B5: ligand B G4-C13 to C-G (ssRNA)
RNA: GGUCCCAAGUGCAAGGGGAAAAUGCACU
B5 returned a binding signal in data set [3] of 1 fold vs ligand B.

B6: ligand B 3' truncation C23-U26 (ssRNA)
RNA: GGUCCGAAGUGCAACGGGAAAAUG
Molecule B6 came in with a binding signal in data set [1] of 7 fold lower affinity.

B7: ligand B with 2'-methoxy Stem 2 (FIG. 7 C) (ssRNA)
RNA: UCCGAAGUGCAACGGGAAAAUGCACU
modifications: 2'-OMe at the 12 riboses of Stem 2 (A6-A11, U21-U26)
B7: the binding result in [4] is listed as “binds”.

B8: ligand B 3' truncation G22-U26 (ssRNA)
RNA: GGUCCGAAGUGCAACGGGAAAAU
Take B8: the binding signal in data set [1] is ~12 fold lower affinity.

B9: ligand B G4-C13 to A-C (ssRNA)
RNA: GGUCCAAAGUGCAACGGGAAAAUGCACU
Turning to B9, in [5], the binding signal was ≥ 100 fold lower affinity.

B10: ligand B G4-C13 to A-U (ssRNA)
RNA: GGUCCAAAGUGCAAUGGGAAAAUGCACU
Take B10: the binding signal in data set [1] was ~20 fold lower affinity.

B11: ligand B G16A (ssRNA)
RNA: GGUCCGAAGUGCAACGGAAAAAUGCACU
In the case of B11, the binding result in data set [5] is given as “no binding”.

B12: HIV-RT ligand D of FIG. 2 (5' U and next C removed) (ssRNA)
RNA: GGCGAAGUGCAACGGGAAAAUGCACU
As to B12, in data set [6], the binding result is given as “no binding”.

B13: ligand B 3' truncation U21-U26 (no Stem 2) (ssRNA)
RNA: GGUCCGAAGUGCAACGGGAAAA
Take B13: the binding signal in data set [7] was ~70 fold lower affinity.

B14: synthetic ligand B with 5'-terminal U1 (ssRNA)
RNA: UCCGAAGUGCAACGGGAAAAUGCACU
On to B14, for which the binding result in data set [8] is given as “binds”.

B15: ligand B 3' truncation A24-U26 (ssRNA)
RNA: GGUCCGAAGUGCAACGGGAAAAUGC
The molecule B15 had a binding signal in data set [9] of 1 fold vs ligand B.

B16: HIV-RT ligand C of FIG. 2 (no 5' U) (ssRNA)
RNA: GGCCGAAGUGCAACGGGAAAAUGCACU
modifications: [none]
Regarding B16, the binding signal in [10] was ~20 fold lower affinity.

These data come from US5817785, “Methods of producing nucleic acid ligands” (NeXstar Pharmaceuticals, Inc.).
